Laboratory results as given in the Immune Epitope Database (IEDB).

Experiments:
HLA-A*02:01 [1] = test: IEDB peptide-MHC binding, purified MHC/competitive/fluorescence; filed as Kd, often an IC50 or EC50 that approximates it; ≥ and ≤ were set here for values at or beyond the usual limits of such assays; conditions: source organism: Campylobacter jejuni subsp. jejuni NCTC 11168 = ATCC 700819
HLA-A*02:03 = test: as above; conditions: source organism: Campylobacter jejuni subsp. jejuni NCTC 11168 = ATCC 700819
HLA-A*02:11 = test: as above; conditions: source organism: Campylobacter jejuni subsp. jejuni NCTC 11168 = ATCC 700819
HLA-A*02:12 = test: as above; conditions: source organism: Campylobacter jejuni subsp. jejuni NCTC 11168 = ATCC 700819
HLA-A*02:16 = test: as above; conditions: source organism: Campylobacter jejuni subsp. jejuni NCTC 11168 = ATCC 700819
HLA-A*02:19 = test: as above; conditions: source organism: Campylobacter jejuni subsp. jejuni NCTC 11168 = ATCC 700819
HLA-A*03:01 [2] = test: as above; conditions: source organism: Campylobacter jejuni subsp. jejuni NCTC 11168 = ATCC 700819
HLA-A*23:01 = test: as above; conditions: source organism: Campylobacter jejuni subsp. jejuni NCTC 11168 = ATCC 700819
HLA-A*24:03 = test: as above; conditions: source organism: Campylobacter jejuni subsp. jejuni NCTC 11168 = ATCC 700819
HLA-A*26:01 [3] = test: as above
HLA-A*29:02 [4] = test: as above; conditions: source organism: Campylobacter jejuni subsp. jejuni NCTC 11168 = ATCC 700819
HLA-A*68:02 [5] = test: as above; conditions: source organism: Campylobacter jejuni subsp. jejuni NCTC 11168 = ATCC 700819
HLA-A*69:01 = test: as above; conditions: source organism: Campylobacter jejuni subsp. jejuni NCTC 11168 = ATCC 700819
HLA-B*15:01 = test: as above
HLA-B*15:17 [6] = test: as above
HLA-B*18:01 [7] = test: as above
HLA-B*27:03 = test: as above
HLA-B*39:01 = test: as above; conditions: source organism: Campylobacter jejuni subsp. jejuni NCTC 11168 = ATCC 700819
HLA-B*46:01 [8] = test: as above
HLA-B*51:01 [9] = test: as above
HLA-B*57:01 = test: as above
HLA-B*58:01 [10] = test: IEDB peptide-MHC binding, cellular MHC/competitive/fluorescence; ≥ and ≤ were set here for values at or beyond the usual limits of such assays; conditions: source organism: Human herpesvirus 4 strain B95-8
HLA-A*03:01 [11] = test: IEDB peptide-MHC binding, purified MHC/direct/fluorescence; filed as Kd, often an IC50 or EC50 that approximates it; ≥ and ≤ were set here for values at or beyond the usual limits of such assays; conditions: source organism: Cryptosporidium parvum Iowa II
HLA-A*25:01 [12] = test: as above; conditions: source organism: Cryptosporidium parvum Iowa II
HLA-A*26:01 [13] = test: as above; conditions: source organism: Cryptosporidium parvum Iowa II
HLA-A*80:01 [14] = test: as above; conditions: source organism: Cryptosporidium parvum Iowa II
HLA-B*15:17 [15] = test: as above; conditions: source organism: Cryptosporidium parvum Iowa II
HLA-B*18:01 [16] = test: as above; conditions: source organism: Cryptosporidium parvum Iowa II
HLA-B*46:01 [17] = test: as above; conditions: source organism: Cryptosporidium parvum Iowa II
HLA-A*02:01 [18] = test: as above; conditions: source organism: Homo sapiens
HLA-A*25:01 [19] = test: IEDB peptide-MHC binding, purified MHC/competitive/fluorescence; filed as Kd, often an IC50 or EC50 that approximates it; ≥ and ≤ were set here for values at or beyond the usual limits of such assays; conditions: source organism: Homo sapiens
HLA-A*80:01 [20] = test: as above; conditions: source organism: Homo sapiens
HLA-A*01:01 = test: IEDB peptide-MHC binding, purified MHC/competitive/fluorescence; ≥ and ≤ were set here for values at or beyond the usual limits of such assays; conditions: source organism: Monodelphis domestica
HLA-A*02:01 [21] = test: as above; conditions: source organism: Monodelphis domestica
HLA-A*03:01 [22] = test: as above; conditions: source organism: Monodelphis domestica
HLA-A*11:01 = test: as above; conditions: source organism: Monodelphis domestica
HLA-A*24:02 = test: as above; conditions: source organism: Monodelphis domestica
HLA-A*25:01 [23] = test: as above; conditions: source organism: Monodelphis domestica
HLA-A*29:02 [24] = test: as above; conditions: source organism: Monodelphis domestica
HLA-A*31:01 = test: as above; conditions: source organism: Monodelphis domestica
HLA-A*68:02 [25] = test: as above; conditions: source organism: Monodelphis domestica
HLA-B*07:02 = test: as above; conditions: source organism: Monodelphis domestica
HLA-B*08:01 = test: as above; conditions: source organism: Monodelphis domestica
HLA-B*14:02 = test: as above; conditions: source organism: Monodelphis domestica
HLA-B*18:01 [26] = test: as above; conditions: source organism: Monodelphis domestica
HLA-B*35:01 = test: as above; conditions: source organism: Monodelphis domestica
HLA-B*37:01 = test: as above; conditions: source organism: Monodelphis domestica
HLA-B*40:02 = test: as above; conditions: source organism: Monodelphis domestica
HLA-B*44:03 = test: as above; conditions: source organism: Monodelphis domestica
HLA-B*51:01 [27] = test: as above; conditions: source organism: Monodelphis domestica
HLA-B*53:01 = test: as above; conditions: source organism: Monodelphis domestica
HLA-B*58:01 [28] = test: as above; conditions: source organism: Monodelphis domestica
[29] = source organism: Campylobacter jejuni subsp. jejuni NCTC 11168 = ATCC 700819

Sequence: LELAEITAE
- Kd (HLA-A*02:01 [1]): ≥ 20 µM
- Kd (HLA-A*02:03): ≥ 20 µM
- Kd (HLA-A*02:11): ≥ 20 µM
- Kd (HLA-A*02:12): ≥ 20 µM
- Kd (HLA-A*02:16): ≥ 20 µM
- Kd (HLA-A*02:19): ≥ 20 µM
- Kd (HLA-A*03:01 [2]): ≥ 20 µM
- Kd (HLA-A*23:01): ≥ 20 µM
- Kd (HLA-A*24:03): ≥ 20 µM
- Kd (HLA-A*26:01 [3]; [29]): ≥ 20 µM
- Kd (HLA-A*29:02 [4]): ≥ 20 µM
- Kd (HLA-A*68:02 [5]): ≥ 20 µM
- Kd (HLA-A*69:01): ≥ 20 µM
- Kd (HLA-B*15:01; [29]): ≥ 20 µM
- Kd (HLA-B*15:17 [6]; [29]): ≥ 20 µM
- Kd (HLA-B*18:01 [7]; [29]): 0.511 µM
- Kd (HLA-B*27:03; [29]): ≥ 20 µM
- Kd (HLA-B*39:01): ≥ 20 µM
- Kd (HLA-B*46:01 [8]; [29]): ≥ 20 µM
- Kd (HLA-B*51:01 [9]; [29]): ≥ 20 µM
- Kd (HLA-B*57:01; [29]): ≥ 20 µM

Sequence: NAAEPEQPW
- IC50 (HLA-B*58:01 [10]): 5 µM

Sequence: RAIMTTWTV
- Kd (HLA-A*03:01 [11]): ≥ 20 µM
- Kd (HLA-A*25:01 [12]): ≥ 20 µM
- Kd (HLA-A*26:01 [13]): ≥ 20 µM
- Kd (HLA-A*80:01 [14]): ≥ 20 µM
- Kd (HLA-B*15:17 [15]): 0.06 µM
- Kd (HLA-B*18:01 [16]): ≥ 20 µM
- Kd (HLA-B*46:01 [17]): ≥ 20 µM

Sequence: HLLCQAFSV
- Kd (HLA-A*02:01 [18]): 0.0002 µM
- Kd (HLA-A*25:01 [19]): ≥ 20 µM
- Kd (HLA-A*26:01 [3]; source organism: Homo sapiens): ≥ 20 µM
- Kd (HLA-A*80:01 [20]): ≥ 20 µM
- Kd (HLA-B*15:01; source organism: Homo sapiens): ≥ 20 µM
- Kd (HLA-B*15:17 [6]; source organism: Homo sapiens): ≥ 20 µM
- Kd (HLA-B*18:01 [7]; source organism: Homo sapiens): ≥ 20 µM
- Kd (HLA-B*27:03; source organism: Homo sapiens): ≥ 20 µM
- Kd (HLA-B*46:01 [8]; source organism: Homo sapiens): ≥ 20 µM
- Kd (HLA-B*51:01 [9]; source organism: Homo sapiens): ≥ 20 µM
- Kd (HLA-B*57:01; source organism: Homo sapiens): ≥ 20 µM

Sequence: LEYFQFVKKLL
- IC50 (HLA-A*01:01): ≥ 20 µM
- IC50 (HLA-A*02:01 [21]): ≥ 20 µM
- IC50 (HLA-A*03:01 [22]): ≥ 20 µM
- IC50 (HLA-A*11:01): ≥ 20 µM
- IC50 (HLA-A*24:02): ≥ 20 µM
- IC50 (HLA-A*25:01 [23]): ≥ 20 µM
- IC50 (HLA-A*29:02 [24]): ≥ 20 µM
- IC50 (HLA-A*31:01): ≥ 20 µM
- IC50 (HLA-A*68:02 [25]): ≥ 20 µM
- IC50 (HLA-B*07:02): ≥ 20 µM
- IC50 (HLA-B*08:01): 2.4 µM
- IC50 (HLA-B*14:02): ≥ 20 µM
- IC50 (HLA-B*18:01 [26]): 4.72 µM
- IC50 (HLA-B*35:01): ≥ 20 µM
- IC50 (HLA-B*37:01): ≥ 20 µM
- IC50 (HLA-B*40:02): 0.126 µM
- IC50 (HLA-B*44:03): ≥ 20 µM
- IC50 (HLA-B*51:01 [27]): ≥ 20 µM
- IC50 (HLA-B*53:01): ≥ 20 µM
- IC50 (HLA-B*58:01 [28]): ≥ 20 µM
